Measurements taken from patent US20230095004.

Legend:
[1] = target: T1, Angiopoietin-2 (Ang2) (Homo sapiens) (UniProt O15123); experiment: flow; conditions: 2'-F
T1 sequence: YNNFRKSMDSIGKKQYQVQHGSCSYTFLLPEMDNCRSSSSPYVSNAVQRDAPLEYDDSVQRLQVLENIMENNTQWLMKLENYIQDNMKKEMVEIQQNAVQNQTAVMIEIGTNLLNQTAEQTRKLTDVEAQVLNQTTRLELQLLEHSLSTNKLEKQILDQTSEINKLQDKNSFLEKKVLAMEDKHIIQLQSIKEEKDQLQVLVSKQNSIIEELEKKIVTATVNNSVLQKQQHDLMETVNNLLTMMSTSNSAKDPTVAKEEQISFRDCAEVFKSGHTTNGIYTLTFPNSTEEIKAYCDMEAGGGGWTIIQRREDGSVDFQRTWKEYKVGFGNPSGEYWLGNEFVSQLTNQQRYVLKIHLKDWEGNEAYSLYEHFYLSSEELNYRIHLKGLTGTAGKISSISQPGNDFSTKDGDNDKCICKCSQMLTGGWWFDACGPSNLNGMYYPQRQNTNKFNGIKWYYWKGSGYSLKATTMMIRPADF

[2] = system: T2, VEGF-165 (VEGF-A) (Homo sapiens); experiment: flow; conditions: 2'-F
T2 sequence: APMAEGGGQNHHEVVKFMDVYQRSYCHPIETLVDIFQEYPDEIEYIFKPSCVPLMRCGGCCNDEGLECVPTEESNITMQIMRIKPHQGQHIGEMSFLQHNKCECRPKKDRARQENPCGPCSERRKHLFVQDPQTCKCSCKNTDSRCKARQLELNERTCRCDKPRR

[3] = hexaethylene glycol (H) linker replacing UUUUA after UGCAUGCA
[4] = OOOO linker replacing UUUUA after UGCAUGCA
[5] = OO linker replacing UUUUA after UGCAUGCA
[6] = internal hexaethylene glycol (H) linker in Ang2 part

UGCAUGCACCAGUGAGUCGGAUCUCCGCAUAGAUAAGCCAACAAACGUACAUUCUCUGUUAGUAUUUUCUGCG [AMSB107.22]
Kd [1, 3]: 0.098 nM | Kd [2, 3]: 0.055 nM

UGCAUGCAUUUUACCAGUGAGUCGGAUCUCCGCAUAGAUAAGCCAACAAACGUACAUUCUCUGUUAGUAUUUUCUGCG [AMSB107.23]
Kd ([1]; 5' hexaethylene glycol (H)): 0.084 nM | Kd ([2]; 5' hexaethylene glycol (H)): 0.049 nM

UGCAUGCACCAGUGAGUCGGAUCUCCGCAUAGAUAAGCCAACAAACGUACAUUCUCUGUUAGUAUUUUCUGCG [AMSB107.27]
Kd [1, 4]: 0.079 nM | Kd [2, 4]: 0.059 nM

UGCAUGCACCAGUGAGUCGGAUCUCCGCAUAGAUAAGCCAACAAACGUACAUUCUCUGUUAGUAUUUUCUGCG [AMSB107.26]
Kd [1, 5]: 0.076 nM | Kd [2, 5]: 0.056 nM

UGCAUGCAUUUUACCAGUGAGUCGGAUCUCCGCAUAGAUAAGCCAACAAACGUUCUCUGUUAGUAUUUUCUGCG [AMSB107.25]
Kd [1, 6]: 1.41 nM | Kd [2, 6]: 0.224 nM

UGCAUGCAUUUUACCAGUGAGUCGGAUCUCCGCAUAGAUAAGCCAACAAAUUCUCUGUUAGUAUUUUCUGCG [AMSB107.24]
Kd [1, 6]: 1.78 nM | Kd [2, 6]: 0.209 nM
